Data published in the supplement of paper PMC12636428.

System: Saccharomyces cerevisiae
Assay: transcriptional activation domain activity (GFP:mCherry ratio, weighted mean of sorted bins, harmonized to initial dataset scale) (arbitrary fluorescence ratio units); higher = stronger transcriptional activation
Conditions: beta-estradiol 1 µM; induction time 4 h
How it was run: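 Values are activation activity, found as the read-weighted mean of bin median fluorescence, averaged across barcodes and then mapped linearly onto the initial dataset scale. Barcoded protein tiles fused to an estradiol-inducible synthetic transcription factor were integrated at the URA3 locus of GFP-reporter yeast diploids. Cells were induced for 4 hours at 30 °C with 1 uM beta-estradiol in SC, sorted into 8 bins by GFP:mCherry ratio, and barcode-sequenced, with tiles under 50 reads discarded.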

Sequence | transcriptional activation domain activity
IETLYRLVTTHSGQDYFIQSVHHGILLLNLLYMDIPYFTEWVGLSCQLYNVIT | 27700
IFAFGYWLEESGKLLRLDLFTRFYAWGRIVLPRVGDAMIFYWENDTFGIRRGF | 69000
IFASALLVACFIHVKGVLDFSLYILKITCRADLDVDEWRSHFGMGEYVVYVGM | 61400
IFFCHGRFLTSRSFWAFLLSLFLLIAPSILFLVFTCPWLWFHMSPSIPIVFSY | 51200
IFFSQFGRYWIVFPGILFLTSVALSLILIVMLCIPGINLWTTISINLAIPYWA | 27300
IFFVLPVFFFFHPPPFVFLPPSSFLPFLLLLLLLPLVLFISPPFSPSVAFYFT | 54100
IFGSSFFLLCLFNLFFFLFFLSFLSLLFSFFLFFLFFFLFDVFTTVILSSTYG | 51800
IFHLPLECPFPLTNRRNACALIENFLDAVKYHRHLFPYWRRRAIKYFIWREWF | 32300
IFLACCAVFPGLGNLGFTLMQYRLGQRSFLSAAAENLTWVPFFFFFFGGLSVH | 78400
IFLFHINHAVFKSVVWWIGVFFFVYVLITIMPILRYDSPYYSPLSASVWFLYT | 45800
IFLHIFLLVLLRLLFLLLSLFYFLLLPHFFYNQPSLLLRLFLNFFQLSLSILL | 34100
IFNPLNWVFVQSSKVFPVDYILALLLVFDFFISSVVGIAFIGIRFLWVTLFRL | 71500
IFRVTLLLVYFWTSSIIIGVTQYIGTPLYLISKDHYYRFMAFTKQCMTLLVLS | 65400
IFSLILALIGMIILATIDVVHKIGVTYFACFLMAAGSYVPTVLVHSWHNNNNL | 50300
IFTELYFIMSSIWFSKVYYMFGFLFVCFLLMTLTCAAVTILLVYFLLCAENYH | 62000
IFTSFLLFHDPTLFMFISYDIAYVWWVHLMERLIEPLPLMCCFLIMPMICFVI | 54400
IFVLDIIQVRCNYFFFLSFLFIWMRSMFFLCSNRLVALFLFYFSGSTLRVTIM | 51300
IFVSLLDYLATWISDDQIKCWPLNFVSRMFFYMLYFVFYRTILLFLTIEEIAV | 55200
IFVYLRIKKCCCLNKSSLLLDVRLIHKNRDTVIIFARGLVGIFKKLSLRVVEC | 51200
IGENDTVDGKRFCTFYPQYREGRVRVNLGVTRLSFRAFYICPLAFTIARYLLN | 67400
IGETDAKAKKEKKEKKGKKAQEGAVVAETVDGGEEKKKKKKSKAKGETTADSM | 35100

Sequence | transcriptional activation domain activity
IGFVDFPFSSCSFLLGYFCYSVFLCFPFLFLVFFGVIYMWSSRGFLVQSFTMI | 70800
IGFYFLEYGQNCFRDDSDGPCWAGRYMVNVWNDLAVLRRLICYAAVQLARQHR | 40900
IGGFLGCLLMGHICLIILVFLCQTLVYREVTRLFTLMDSKPTLNWYFFATANY | 53000
IGIVYLLLCPFAFIFAYYFMRLRRTLIGSMPLSVINDPLLVELKVRFQLLDRG | 42000
IGKVTSAGLMSKTVRVDRPVQEWHNYLRKFYKSSKHYLVHDPANSLRTGDMIS | 69800
IGLCYVIILAIICFQRIYVQPYLYGIEAYMNREICLCWLVLLSLNLSTLQFNQ | 74300
IGLLLLSILVIYIFISFPHHTIESGHCTISFTSPIAIFYLLLLNFFLNTYLSF | 36300
IGLPGFTWVYVARYGSVFNLLGLGVIGVVWNWGLAAVSISNYGNCWERLINWR | 54300
IGLQMASFVLGGFVYFGLSFQSSNYVVLLYYEFAALSQNVYLTVAIIWRLLIF | 72300
IGLQVLLGWSYVMINPLAIYSSPYLILFSFSSLVYLVLVNVLTLPSSLPFFHP | 87600
IGMGLDAMLILSRLSRFIRIACVVFWWPGFAVFIAACKSLCLLLHFRDVRELR | 63000
IGMQLLLTWAYIRLNPFAVYSSPYIILFSFWSLGYLVLVYTLTLPSSLPFYHS | 46800
IGQFRFLQRLVLVHGRWSYRRLAETISNFFYKNMIWTFSIFWYQVFCNFDITY | 24600
IGSLLCERADVIARLVSYLLRRYAIDGFRTILLWLNDWPVGLKLNYHLASHFC | 56800
IGSYYGKHELYEEVRAQDKILYCTLVLPFVYFLMFLWIWYYLYCFRFFGFFYA | 22000
IGTSSTGDLECCLFTLLLFSWFWGLQTFLSICYYYGSFVSQAFFFFFHFFFFW | 53800
IGVLHQVFFYKNLIWTFALLLFQIFCESNATYLFDYSLVLLFNLIFTSLPVIM | 53200
IGVRFDTSIKFINGHLERFLAYLGDPLLKQLCSGEILRRLLLLIIDPPILWND | 79200
IGWFFPFWIVLLLPLDMASSLYEGCDMLCRRPFTWVSQSFLYIAWRTIYWTSF | 59000
IGWWMVKSGLKDDLFAPGSHPRVSQYRLTAHLSTAFFCYSWMLLAGLSVLRTR | 69800
IGYFVPTTKFHGPARFGYLEYADHIFRLYEILDWRVFVGISLFLHWVFSYSHT | 39100

Sequence | transcriptional activation domain activity
IHCLDSLFLLYMLTIFYLLWYSSLIFPLWCMISLYYFIVLSSTSLLGLSFISL | 71500
IHEPDQPLFSSFFSFFFVSFLSLIPPPLFPSSFPFLLFLPFLPPSLSLLSLIF | 35500
IHFFFFGGTYFFFFCQWGFGGFFFSFLTFIPFFSYIFHIFHYAVLWLWLWLWL | 59800
IHILASIPSEFWKLLILSFFEKFRSNIYHTLFYRFIYLNRGFILLLLNQLRLI | 48100
IHILHGTLQTIIAHSRAPHFLHVPCMRLPLLLLLIPPLYFEYCLLLLSPFFFA | 51200
IHISPFLSFLLFNTFLFFFDILLEYDQSGKSSCSVLWGIGWGCWWILFIGSLQ | 38800
IHLFISSFPLLFICSLPYAFLSFFPHLFISYFLSSFYSLSTHLFHSFFPFLVI | 59400
IHQASIAHHPAQHPQRKAHQHSRGGARPQHESQEATRRLGPRHPAHVAALHRR | 30500
IHRLTFFFFFCFFFFFFCLFSFSVSFFFFLFFFFLFSTSLLARRFLSLFSSVA | 50100
IHSMYRPFQMLTMDFMVMNLCLFSAILLGILYLFFGAFHLVFTVVYDFKLWQV | 43200
IHVESRLPEMRATLEPKRYVHVARFFSHLIIYFRLLHRPLPASTCNSMLRHYV | 47400
IIAAKPEVLVKEEAAVKEEVPKAAAAKPKAKGKGKGKGKGKKVAEKKPEPVAE | 22400
IIAKVIKYAKTIEELYLAYFSVKEYLLNIAIAKTCLTYLTDIKGSHSMIRYNF | 28200
IIALLLRFYDPSSGKVLVGPDDLRNLNVRSLRSHIALVTQSPVLFSGTILDNI | 42100
IIDKLGSLTFVYARRNPITIGTFAATETAILEHYGAGNIWKYILWHWVICFYS | 44400
IIEEQSGEDDDLPGHKKQRKESLAELLASEPADGTSPRRKSGQIKRTVPAVVL | < 6570
IIFCLGRYGLICSLMYTNTVLIFLPPSRMSAQASLTCQTFASILVFCIVLSAI | 73300
IIFLIMRAMVGLQVLNENVIEKILMYLKLQWVAVFIYWQVLWLVKFSLLIFFK | 75400
IIFVELYSYLLYYIYLNIRIFLRFSSSIVLDFELFCFPPSHFPFNFFVCILFT | 74000
IIFYLIISIIIIIILLLFYYYLLFIIMFFIQDVGCWLLLWCFVGLFELLLQLL | 28700
IIHLVNLAQVTVFLVHRILYGIIPLFEIQTCAYFPLLVSLWHMTYILFYVVMF | 36100

Sequence | transcriptional activation domain activity
IIKLLVFTLWVLDSMHLILCTIAIYWYLIRNFNNTTNLQLNHWSMNLQTDCNG | 43600
IIKSLVGCLFFVLCPIVLVHSTSCYPRILYPLSYLLFLFWVPHLLFACRVTFT | 56400
IILDLLLRFSKVENVISQAVDSPPMGRLGCCAIVTGSAVAWALCTATRFRLVL | 52600
IILRIVGAPNWIQFWSLGRNQVDLLLVISTCVIQLPMIQNLDIYKYLTIFQVF | 81300
IINHLIILYLNRHICVMGLLHVPTFLEYYNSLDDPLNDAMVLAVCIDALVNLR | 42700
IIPKIYFYGGYKGLLLFISSLSLTLLCYILITRPILSFLIVSDIVLNVIINIY | 63400
IIQCLVLGKYTKCAPRTIETLLLYLHLKYNQHEDNQMEIWVLLGVIVRLALRM | 44700
IIQKLCFITVKLFFTKYIPLQAILINLILIGYLMFVVRHFPYRYTTLNNLELI | 55000
IIRARIFSYLYYGVKKFTFLFPINTVITNMAATLLCAVLVIYCTLTILPMIYY | 62200
IIRLCSYFQRYVDLPIHNIYDRIAAHASTEILFYANALKEDFFRFGLVYRLYA | 59200
IISARDAGNGEEAAAQNVLNCFEYQFPNLQTIQSLVHEQTLLSQLASSATPHS | 75200
IISGAGSNMERELFYCLQNVRFRGPLLRVILLVLKACWLLKNLWVYWLIVYHR | 45800
IIVICSVALYKVVSITGVGLVCLLLAGYLCFFNLFCSNVIRLSLLFLPINARP | 58000
IIVKTEIMIRNRHPRFLRITLDSVSNLVRLWYIVRLKKLTYYYLLWEFSLLPL | 49700
IIYVPQARLMNFFNALTTQSFLYFWAVCLMRLHIAAFLPNLHNGKPYLITVYT | 47500
IKDFEAHLFAIILYHLSFFGCRALGVVSMLKCQGQMCDPWSLMYRGLYVFYRL | 35900
IKDIEINDLRNRYTLTKGAVQKKGPRLVRPLRISSSPECTEPRPSPCLSVSLS | 45600
IKFGVPVALIVIIAAVVGGVLGSRASKNSSASSSAAGDSSSPSGEAAASGAAV | 48300
IKIIQLLGTRYLYFMIKELRGALLRGYQMHVLGYTVHAILASIDLNPACLKAC | 77200
IKITKEHKWIIVFKIRYKLFKYLVILFKLTNGASLFSYFINSLLFYNLLNNFY | 54600
